{
  "source": "paper PMC5339670",
  "about": "(The Journal of Experimental Medicine, 2017)",
  "target": "T1, Recombinant His-tagged WASp (mouse, UniProt P70315 1-520)",
  "T1 sequence (looked up)": "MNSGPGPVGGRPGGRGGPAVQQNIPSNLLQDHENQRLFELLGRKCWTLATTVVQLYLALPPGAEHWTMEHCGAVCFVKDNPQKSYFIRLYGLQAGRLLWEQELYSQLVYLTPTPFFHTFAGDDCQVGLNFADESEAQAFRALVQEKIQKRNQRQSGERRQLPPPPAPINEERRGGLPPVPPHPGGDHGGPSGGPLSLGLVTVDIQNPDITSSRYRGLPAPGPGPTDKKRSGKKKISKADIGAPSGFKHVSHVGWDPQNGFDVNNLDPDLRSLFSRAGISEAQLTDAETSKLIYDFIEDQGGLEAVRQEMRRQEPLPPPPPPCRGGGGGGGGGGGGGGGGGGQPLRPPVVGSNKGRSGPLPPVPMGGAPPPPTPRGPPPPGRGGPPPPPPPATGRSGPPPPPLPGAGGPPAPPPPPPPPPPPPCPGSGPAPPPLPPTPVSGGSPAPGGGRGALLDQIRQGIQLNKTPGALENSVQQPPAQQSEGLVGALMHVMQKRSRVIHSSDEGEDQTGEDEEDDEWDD",
  "assay": "pull-down",
  "data": [
    {"binder": "GST fusion protein of the Skap2 SH3 domain (domain or fragment, mouse, UniProt Q3UND0 296-357, looked up) DYANFYQGLWDCTGALSDELSFKRGDVIYILSKEYNRYGWWVGEMKGAIGLVPKAYLMEMYD", "values": [
      {"measurement": "binding result", "value": "binds"}
    ]}
  ]
}
